Assay results published in patent US20230265192A1 (GIGAGEN, published 2023).

B1: antibody A7 (L7H7) (antibody, V domains shown)
VH: QVQLVESGGGVVQPGRSLRLSCAASGFTLSSFGMHWVRQAPGKGLEWVAVIWYDGSNKYYADSVKGRFIISRDNSKTALYLQMNSLRAEDTAVYYCARAHYFGAFDIWGQGTMVTVSS
VL: not shown
notes: also called aCTLA-4.3; CTLA4.A7
B2: antibody A5 (L5H5) (antibody, V domains shown)
VH: QVQLVESGGGVVQPGRSLRLSCAASGFTFSSYGMHWVRQAPGKGLEWVAVIWYDGNNKYYADSVKGRFTISRDNSKNTLYLQMYSLRAEDTAVYYCARGGILAAGIFDYWGQGTLVTVSS
VL: EIVLTQSPGTLSLSPGDRATLSCRASQSGSSSYLAWYQQKPGQAPRLLIYGASSRATGIPDRFSGSGSGTDFTLTISRLEPEDFAVYYCQQYGTSPFTSGPGTKVDIK
notes: also called aCTLA-4.28; CTLA4.A5
B3: antibody A2 (L2H2) (antibody, V domains shown)
VH: QVQLVESGGGVVQPGRSLRLSCAASGFTFSNYGMNWVRQAPGKGLEWVAVIWYDGRNKHYADSVKGRFTISRDNSKNTLYLQMNSLRAEDTAVYYCARGGDWGPYFDYWGQGTLVTVSS
VL: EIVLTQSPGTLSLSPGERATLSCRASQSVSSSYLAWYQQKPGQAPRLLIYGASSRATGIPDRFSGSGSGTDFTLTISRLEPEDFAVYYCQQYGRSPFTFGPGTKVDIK
notes: also called aCTLA-4.4; CTLA4.A2

target: T1, human CTLA-4 expressed on the cell surface (human, UniProt P16410 36-223); assay: cell-based or functional assay
T1 sequence (P16410 36-223 limits assumed): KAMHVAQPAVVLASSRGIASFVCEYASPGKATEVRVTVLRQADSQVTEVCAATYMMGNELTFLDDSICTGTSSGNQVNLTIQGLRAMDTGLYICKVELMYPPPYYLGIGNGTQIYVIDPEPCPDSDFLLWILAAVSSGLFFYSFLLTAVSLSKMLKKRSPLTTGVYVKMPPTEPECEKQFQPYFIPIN

| Promega assay % inhibition [%] | Promega assay antagonist (EC50, ug/mL) [µg/mL] | Binder |
| --- | --- | --- |
| 11.5 | 0.17 | B1 |
| 100 | 0.18 | B2 |
| 75.4 | 0.12 | B3 |

target: T2, CD27 on CHO cells (UniProt P26842 20-260, limits assumed); assay: flow cytometry, mixed CTLA-4+ and CD27+ CHO cells
T2 construct: whole, on cells; also called CD27+ CHO cells; irrelevant antigen (CD27)
Procedure, shortened: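 CHO cells stably expressing human CTLA-4 mixed with CD27-expressing CHO cells, then incubated with 10 μg/mL mAb for 30 min at 4 °C. Bound mAb detected with PE anti-human IgG Fc, CD27 cells gated by FITC anti-CD27; cells fixed in 4% paraformaldehyde before flow cytometry.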

T2 sequence (P26842 20-260 limits assumed): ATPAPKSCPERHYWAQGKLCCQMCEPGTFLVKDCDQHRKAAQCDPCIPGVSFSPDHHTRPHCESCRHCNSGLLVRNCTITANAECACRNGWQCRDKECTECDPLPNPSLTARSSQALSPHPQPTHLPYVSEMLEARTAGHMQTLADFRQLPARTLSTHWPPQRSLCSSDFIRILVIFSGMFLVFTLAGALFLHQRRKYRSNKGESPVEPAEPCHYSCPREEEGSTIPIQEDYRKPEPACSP

| binding result | Binder |
| --- | --- |
| no binding (tested: 10 µg/mL) | B1 |
| no binding (tested: 10 µg/mL) | B2 |
| no binding (tested: 10 µg/mL) | B3 |

target: T3, His-tagged human CTLA-4 (CT4-H5229; Acro Biosystems) (human, UniProt P16410 36-161); assay: SPR (Carterra)
T3 construct: bought soluble protein; also called soluble human CTLA-4; recombinant human CTLA-4; not shown: His tag
Procedure, shortened: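 mAb supernatants captured, at two densities, on an anti-human IgG Fc lawn. His-tagged human CTLA-4 injected at 1.95, 7.8, 31.25, 125 and 500 nM in HBS-EPC pH 7.4 with 1.0 mg/mL BSA, as a non-regenerative series with 5-min association and 15-min dissociation. Double-referenced data fitted for ka, kd and KD.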

T3 sequence (P16410 36-161 limits assumed): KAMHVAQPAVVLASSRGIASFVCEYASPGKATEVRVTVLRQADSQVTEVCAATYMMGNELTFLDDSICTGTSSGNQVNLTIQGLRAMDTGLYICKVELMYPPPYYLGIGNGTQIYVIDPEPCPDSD

| Kd [nM] | Binder |
| --- | --- |
| 5.7 | B1 |
| 4.6 | B2 |
| 5.1 | B3 |

target: T1, human CTLA-4 expressed on the cell …; assay: cell-based or functional assay; remark: another data set of the same source

| Cell-based blocking activity EC50 [µg/mL] | Cell-based blocking activity max signal (RLU) | Binder |
| --- | --- | --- |
| 0.17 | 63 | B1 |
| 0.18 | 548 | B2 |
| 0.12 | 413 | B3 |

target: T3, His-tagged human CTLA-4 (CT4-H5229; …); assay: SPR (Carterra), soluble human CTLA-4

| Kd [nM] | koff [s⁻¹] | kon [M⁻¹ s⁻¹] | Binder |
| --- | --- | --- | --- |
| 5.7 | 0.00036 | 64000 | B1 |
| 4.6 | 0.00042 | 90000 | B2 |
| 5.1 | 0.00052 | 100000 | B3 |

target: T1, human CTLA-4 expressed on the cell …; assay: flow cytometry, 10 µg/mL mAb, geometric MFI

| MFI of CTLA-4+ CHO cells | Binder |
| --- | --- |
| 854 | B1 |
| 1030 | B2 |
| 1120 | B3 |

target: T2, CD27 on CHO cells; assay: flow cytometry, 10 µg/mL mAb, geometric MFI

| MFI of CD27+ CHO cells | Binder |
| --- | --- |
| 15.3 | B1 |
| 17.2 | B2 |
| 11.7 | B3 |
